Data as given in patent publication US20240044920A1 (Alexion, published 2024).

B1: anti-CP mAb D (antibody, V domains shown)
VH: QEQLVESGGGLVQPEGSLTLTCKASGFDFSSYWMCWVRQAPGKRPEWIACIYGGDGTSYFAGWAKGRFTISKTSSTTVTLQMTSLTAADTATYFCARADYYVYVDGGYGHAYDLWGPGTLVTVSS
VL: DIVMTQTPASVEAAVGGSVTIKCQASDDIYSYLAWYQQKPGQPPKLLIFDASSLPSGVPSRFKGSGSGTQFTLTISGVQCADAATYYCQNYYGSSSSVHAFGGGTEVVVKG
notes: Recombinant full-length rabbit IgG from HEK-293; tested as conditioned medium, Protein A-purified and biotinylated
B2: anti-CP mAb A (antibody, V domains shown)
VH: QSLEESGGDLVKPGASLTLTCKASGFDLSRFYYMCWVRQAPGKGLEWIACIYAGRTGNTYYASWAKGRFTISKTSSTTVTLQMTSLTAADTATYFCARASGDFLAYTYAMDLWGPGTLVTVSS
VL: AAVLTQTPASVSAAVGGTVTISCQASQSVDNNNYLAWYQQKPGQPPKLLIYEASKLASGVPSRFSGSGSGTQFTLTISDVQCDDATTYYCAGGYSSSADANAFGGGTEVVVKG
notes: as for B1
B3: anti-CP mAb C (antibody, V domains shown)
VH: QSVEESGGRLVTPGTPLTLTCTASGFSLSRYYMSWVRQAPGKGLEWIGMIYPSSGSTWYASWVKGRFTISATATSVDLKITSPTTEDTATYFCVRDRYPGYNGDSFNLWGQGTLVTVSS
VL: AQVLTQTASPVSAAVGSTVTINCQASQSVYNNNYLAWFQQKPGQPPKRLIYQASKLAIGVPSRFSGSGSGTQFTLTISDVQCDDAATYYCLGSYGCNSVDCNVFGGGTEVVVKG
notes: Recombinant full-length rabbit IgG from HEK-293; also called mAb2
B4: anti-CP mAb B (antibody, V domains shown)
VH: QQQLEESGGGLVKPGGTLTLTCKASGIDFSSYYYMCWVRQAPGKGLEWIACIYVIDDTIYCANWAKGRFTISKTSSTTVTLQMTSLTAADTATYFCARDGSSGIRDYFDLWGPGTLVTVSS
VL: AYDMTQTPASVEVAVGGTVTIKCQASESVSTWLAWYQQKPGQPPKLLIYKASDLASGVPSRFKGSGSGTEFTLTISGVECADAATYYCQQGYTYNNVENVFGGGTEVVVKG
notes: as for B1
B5: anti-CP mAb H (antibody, V domains shown)
VH: QSVEESGGRLVTPGTPLTLTCTVSGFSLSTYAMGWVRQAPGKGLEYIGIIYGGSGTFYASWAKGRFTISKTSTTVDLKITSPTTEDTATYFCARDGDDSYFDYFNLWGQGTLVTVSS
VL: AAVLTQTPASVSAAVGGTVSISCQSNENIGSNLAWYQQKPGQPPKLLIYGASTLTSGVPSRFKGSGSGTAFTLTISGVQCDDAATYYCLGGYLSTSDTTFGGGTAVVVKG
notes: as for B1
B6: anti-CP mAb G (antibody, V domains shown)
VH: QSLEESGGRLVTPGTLLTLTCTVSGFSLSSNAMSWVRQAPGEGLEWIGTISSRGSTYYANWAKGRFTISKTSTTVDLKITSPTTEDTATYFCARSSLAGYEPYYFKLWGQGTLVTVSS
VL: DVVMTQTASPVSAAVGGTVTIKCQASESISSYLAWYQQKPGQPPKLLIYGASDLASGVPSRFKGSGSGTEFTLTISDLECADAATYYCQSYYGLSRNGYGNVFGGGTEVVVKG
notes: Recombinant full-length rabbit IgG from HEK-293; also called mAb3

Assays:
human ceruloplasmin [1] = target: T1, human ceruloplasmin (human, UniProt P00450 20-1065); assay: competition ELISA on coated CP, biotinylated probe; competitor: mAb C
T1 construct: also called CP; purified CP
T1 sequence: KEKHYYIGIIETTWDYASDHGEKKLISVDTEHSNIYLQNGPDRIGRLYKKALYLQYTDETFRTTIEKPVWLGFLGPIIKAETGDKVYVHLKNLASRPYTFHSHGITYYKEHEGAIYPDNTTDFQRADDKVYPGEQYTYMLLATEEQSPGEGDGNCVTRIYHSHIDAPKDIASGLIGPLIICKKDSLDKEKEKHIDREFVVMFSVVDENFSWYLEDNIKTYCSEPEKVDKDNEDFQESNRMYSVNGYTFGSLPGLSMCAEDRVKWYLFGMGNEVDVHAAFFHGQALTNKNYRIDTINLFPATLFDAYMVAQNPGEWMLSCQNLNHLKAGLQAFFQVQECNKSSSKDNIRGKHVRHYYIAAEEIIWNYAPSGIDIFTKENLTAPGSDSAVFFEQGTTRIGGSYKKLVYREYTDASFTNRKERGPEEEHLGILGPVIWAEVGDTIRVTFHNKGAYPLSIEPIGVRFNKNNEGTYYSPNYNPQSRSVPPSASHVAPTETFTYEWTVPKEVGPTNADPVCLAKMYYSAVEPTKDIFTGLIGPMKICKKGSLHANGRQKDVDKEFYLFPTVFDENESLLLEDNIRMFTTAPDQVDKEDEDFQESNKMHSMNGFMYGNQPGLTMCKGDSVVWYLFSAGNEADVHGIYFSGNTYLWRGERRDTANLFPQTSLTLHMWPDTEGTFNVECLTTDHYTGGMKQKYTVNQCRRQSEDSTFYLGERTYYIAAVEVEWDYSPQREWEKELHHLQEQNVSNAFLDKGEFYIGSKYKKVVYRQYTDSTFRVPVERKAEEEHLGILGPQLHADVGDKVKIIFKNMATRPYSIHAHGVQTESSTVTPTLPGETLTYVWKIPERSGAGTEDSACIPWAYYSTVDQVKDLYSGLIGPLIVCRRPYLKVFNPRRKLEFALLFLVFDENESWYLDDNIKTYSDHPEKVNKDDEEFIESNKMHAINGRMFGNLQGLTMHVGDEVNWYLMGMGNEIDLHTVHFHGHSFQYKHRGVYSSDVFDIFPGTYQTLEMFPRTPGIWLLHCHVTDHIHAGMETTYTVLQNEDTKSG
Experimental: (§1) To assess whether any of the 8 anti-CP antibodies competed with each other for binding to CP, the following ELISA study was performed.
(§2) Briefly, CP was coated onto plates at 0.4 ug/mL overnight. Plates were then blocked with 1% BSA for 4 hours, incubated with 10 ug/mL unlabeled blocking antibody for 1 hour, and then, without washing, 50 ng/mL of biotinylated probe antibody for 1 hour. Plates were washed and subsequently incubated with SA-HRP for 30 minutes, followed by another wash. Plates were then incubated with TMB substrate for either 30 minutes or 15 minutes, as noted below, and the reaction was stopped by adding 0.18 M sulfuric acid and read at A450. The experiment was performed on two plates with plate 1 having a TMB incubation time of 30 minutes and plate 2 having a TMB incubation time of 15 minutes. Weaker binders to coated CP were tested on plate 1 and stronger binders on plate 2, with some duplication across plates. Probe Ab/blocking Ab interactions are shown in Table 3, and a summary of the binning results for all 8 anti-CP mAbs and for the 5 mAbs showing the most robust signal on coated CP (as shown in FIG. 6) is provided in Tables 4 and 5.

human ceruloplasmin [2] = target: T1, human ceruloplasmin; assay: competition ELISA on coated CP, biotinylated probe; competitor: mAb A
Experimental: as §1, §2

human ceruloplasmin [3] = target: T1, human ceruloplasmin; assay: competition ELISA on coated CP, biotinylated probe; competitor: CP-pAb
Experimental: as §1, §2

human ceruloplasmin [4] = target: T1, human ceruloplasmin; assay: competition ELISA on coated CP, biotinylated probe; competitor: mAb B
Experimental: as §1, §2

human ceruloplasmin [5] = target: T1, human ceruloplasmin; assay: capture ELISA: mAb (CM, 50 ng/mL) on anti-rabbit IgG-Fc; 20 ng/mL purified human CP
Experimental: (§3) Ceruloplasmin binding by the 28 recombinant anti-CP mAbs was tested as follows. Clear 96-well plates (Nunc, Maxisorp) were coated and incubated overnight at 4 degrees with 10 ug/mL goat anti-rabbit IgG-Fc (Bethyl Laboratories) in BupH carbonate-bicarbonate buffer (ThermoFisher). The coating solution was discarded, and the plates were blocked with 1% BSA in PBS at room temperature for 2 hours and then the blocking solution was discarded. The 28 anti-CP mAb transient conditioned media were diluted to 50 ng/mL in PBS-T containing 1% BSA and incubated on the blocked plates for 1 hour at room temperature. Negative control wells were incubated with PBS-T containing 1% BSA alone or with transient conditioned medium containing non-CP-specific rabbit mAb at 50 ng/mL.

human ceruloplasmin [6] = target: T1, human ceruloplasmin; assay: competition ELISA on coated CP, biotinylated probe; competitor: mAb G
Experimental: as §1, §2

human ceruloplasmin [7] = target: T1, human ceruloplasmin; assay: competition ELISA on coated CP, biotinylated probe; competitor: mAb F
Experimental: as §1, §2

human ceruloplasmin [8] = target: T1, human ceruloplasmin; assay: capture ELISA: mAb (CM, 50 ng/mL) on anti-rabbit IgG-Fc; endogenous CP in Li-heparin human plasma 1:10,000
Experimental: as §3

human ceruloplasmin [9] = target: T1, human ceruloplasmin; assay: competition ELISA on coated CP, biotinylated probe; competitor: mAb E
Experimental: as §1, §2

human ceruloplasmin [10] = target: T1, human ceruloplasmin; assay: competition ELISA on coated CP, biotinylated probe; competitor: mAb H
Experimental: as §1, §2

human ceruloplasmin [11] = target: T1, human ceruloplasmin; assay: competition ELISA on coated CP, biotinylated probe; competitor: mAb D
Experimental: as §1, §2

| Binder | probe binding, % of diluent control (human ceruloplasmin [1]) [%] | probe binding, % of diluent control (human ceruloplasmin [2]) [%] | probe binding, % of diluent control (human ceruloplasmin [3]) [%] | probe binding, % of diluent control (human ceruloplasmin [4]) [%] | A450 (human ceruloplasmin [5]) [A450] | probe binding, % of diluent control (human ceruloplasmin [6]) [%] | probe binding, % of diluent control (human ceruloplasmin [7]) [%] | A450 (human ceruloplasmin [8]) [A450] | probe binding, % of diluent control (human ceruloplasmin [9]) [%] | probe binding, % of diluent control (human ceruloplasmin [10]) [%] | probe binding, % of diluent control (human ceruloplasmin [11]) [%] |
| --- | --- | --- | --- | --- | --- | --- | --- | --- | --- | --- | --- |
| B1 | 72 | 107 | 10 | 98 | 1.03 | 100 | 100 | 1.25 | 98 | 9 | – |
| B2 | 138 | – | 17 | 183 | 1.09 | 35 | -2 | 1.4 | 127 | 115 | 113 |
| B3 | – | 100 | 3 | 95 | 1.09 | 97 | 97 | 1.27 | 99 | 85 | 93 |
| B4 | 78 | 94 | 2 | – | 1.02 | 98 | 95 | 1.32 | 87 | 204 | 34 |
| B5 | 67 | 93 | 2 | 110 | 0.924 | 95 | 94 | 1.03 | 79 | – | 33 |
| B6 | 108 | 91 | 6 | 93 | 0.987 | – | 84 | 1.18 | 102 | 106 | 103 |
